From paper PMC2661964, “Mammalian Kinesin-3 Motors Are Dimeric In Vivo and Move by Processive Motility upon Release of Autoinhibition” (PLoS Biology, 2009)

Legend:
[1] = biological target: the molecule itself; test: cross-linking; lysates of transfected COS cells in borate buffer (50 mM NaBorate, 100 mM potassium acetate, 2 mM MgCl2, 1 mM EGTA, 1% Triton X-100, pH 8.57), 20 mM DMP for 30 min or untreated; SDS-PAGE, immunoblot
[2] = biological target: the molecule itself; test: stepwise photobleaching of single molecules (TIRF microscopy); lysates of COS cells expressing 3xmCit-tagged constructs, in flow chambers with Cy5-microtubules, with AMPPNP; number of bleaching steps of 160–200 spots for each construct

Protein | stoichiometry N [1] | stoichiometry N [2]
KIF1A(1–726)-mCit (domain or fragment, rat, UniProt F1M4A4 1-726, looked up, source: COS cells, transfected, in lysate; not shown: mCit (monomeric citrine), C-terminal, kept) MAGASVKVAVRVRPFNSREMSRDSKCIIQMSGSTTTIVNPKQPKETPKSFSFDYSYWSHTSPEDINYASQKQVYRDIGEEMLQHAFEGYNVCIFAYGQTGAGKSYTMMGKQEKDQQGIIPQLCEDLFSRINDTTNDNMSYSVEVSYMEIYCERVRDLLNPKNKGNLRVREHPLLGPYVEDLSKLAVTSYNDIQDLMDSGNKARTVAATNMNETSSRSHAVFNIIFTQKRHDAETNITTEKVSKISLVDLAGSERADSTGAKGTRLKEGANINKSLTTLGKVISALAEMDSGPNKNKKKKKTDFIPYRDSVLTWLLRENLGGNSRTAMVAALSPADINYDETLSTLRYADRAKQIRCNAIINEDPNNKLIRELKDEVTRLRDLLYAQGLGDITDTNTVPGGPKLTNALVGMSPSSSLSALSSRAASVSSLHERILFAPGSEEAIERLKETEKIIAELNETWEEKLRRTEAIRMEREALLAEMGVAMREDGGTLGVFSPKKTPHLVNLNEDPLMSECLLYYIKDGVTRVGREDAERRQDIVLSGHFIKEEHCIFRSDSRGGGEAVVTLEPCEGADTYVNGKKVTEPSILRSGNRIIMGKSHVFRFNHPEQARQERERTPCAETPAEPVDWAFAQRELLEKQGIDMKQEMEQRLQELEDQYRREREEATYLLEQQRLDYESKLEALQKQMDSRYYPEVNEEEEEPEDEVQWTERECELALWAFRKWKWY | 2 | 
KIF1A-3xmCit (natural protein, rat, UniProt F1M4A4 1-1707, looked up, KIF1A (Kinesin-3 motor), rat, full length; Vector 3xmCit-N1; also called FL; 3xmCit-tagged FL KIF1A; source: COS cells, transfected, in lysate) MAGASVKVAVRVRPFNSREMSRDSKCIIQMSGSTTTIVNPKQPKETPKSFSFDYSYWSHTSPEDINYASQKQVYRDIGEEMLQHAFEGYNVCIFAYGQTGAGKSYTMMGKQEKDQQGIIPQLCEDLFSRINDTTNDNMSYSVEVSYMEIYCERVRDLLNPKNKGNLRVREHPLLGPYVEDLSKLAVTSYNDIQDLMDSGNKARTVAATNMNETSSRSHAVFNIIFTQKRHDAETNITTEKVSKISLVDLAGSERADSTGAKGTRLKEGANINKSLTTLGKVISALAEMDSGPNKNKKKKKTDFIPYRDSVLTWLLRENLGGNSRTAMVAALSPADINYDETLSTLRYADRAKQIRCNAIINEDPNNKLIRELKDEVTRLRDLLYAQGLGDITDTNTVPGGPKLTNALVGMSPSSSLSALSSRAASVSSLHERILFAPGSEEAIERLKETEKIIAELNETWEEKLRRTEAIRMEREALLAEMGVAMREDGGTLGVFSPKKTPHLVNLNEDPLMSECLLYYIKDGVTRVGREDAERRQDIVLSGHFIKEEHCIFRSDSRGGGEAVVTLEPCEGADTYVNGKKVTEPSILRSGNRIIMGKSHVFRFNHPEQARQERERTPCAETPAEPVDWAFAQRELLEKQGIDMKQEMEQRLQELEDQYRREREEATYLLEQQRLDYESKLEALQKQMDSRYYPEVNEEEEEPEDEVQWTERECELALWAFRKWKWYQFTSLRDLLWGNAIFLKEANAISVELKKKVQFQFVLLTDTLYSPLPPDLLPPEAAKDRETRPFPRTIVAVEVQDQKNGATHYWTLEKLRQRLDLMREMYDRAAEVPSSVVEDCDNVVTGGDPFYDRFPWFRLVGRAFVYLSNLLYPVPLVHRVAIVSEKGEVKGFLRVAVQAISADEEAPDYGSGVRQSGTAKISFDDQHFEKFQSESCPVVGMSRSGTSQEELRIVEGQGQGADAGPSADEVNNNTCSAVPPEGLLDSPEKAALDGPLDTALDHLRLGSTFTFRVTVLQASSISAEYADIFCQFNFIHRHDEAFSTEPLKNTGRGPPLGFYHVQNIAVEVTKSFIEYIKSQPIVFEVFGHYQQHPFPPLCKDVLSPLRPSRRHFPRVMPLSKPVPATKLSTMTRPSPGPCHCKYDLLVYFEICELEANGDYIPAVVDHRGGMPCMGTFLLHQGIQRRITVTLLHETGSHIRWKEVRELVVGRIRNTPETDEALIDPNILSLNILSSGYVHPAQDDRQFLDSDIPRTFYQFEAAWDSSMHNSLLLNRVTPYREKIYMTLSAYIEMENCTQPAVITKDFCMVFYSRDAKLPASRSIRNLFGSGSLRATEGNRVTGVYELSLCHVADAGSPGMQRRRRRVLDTSVAYVRGEENLAGWRPRSDSLILDHQWELEKLSLLQEVEKTRHYLLLREKLETTQRPVPEVLSPASSEDSESRSSSGASSPLSAEGQPSPLEVPNERQRELAVKCLRLLMHTFNREYTHSHVCISASESKLSEMSVTLMRDPSMSPLGAATLTPSSTCPSLIEGRYGATDVRTPQPCSRPASPEPELLPELDSKKTPSPVRATETEKEPQRLLVPDIQEIRVSPIVSKKGYLHFLEPHTAGWAKRFVVVRRPYAYMYNSDKDTVERFVLNLSTAQVEYSEDQQAMLKTPNTFAVCTEHRGILLQANSDKDMHDWLYAFNPLLAGTIRSKLSRRRSAQMRV |  | 2
Myc-KIF1A (natural protein, rat, UniProt F1M4A4 1-1707, looked up, KIF1A (Kinesin-3 motor), rat, full length; Cloned into pRK5-Myc; also called Myc-tagged KIF1A; FL KIF1A; source: COS cells, transfected, in lysate) MAGASVKVAVRVRPFNSREMSRDSKCIIQMSGSTTTIVNPKQPKETPKSFSFDYSYWSHTSPEDINYASQKQVYRDIGEEMLQHAFEGYNVCIFAYGQTGAGKSYTMMGKQEKDQQGIIPQLCEDLFSRINDTTNDNMSYSVEVSYMEIYCERVRDLLNPKNKGNLRVREHPLLGPYVEDLSKLAVTSYNDIQDLMDSGNKARTVAATNMNETSSRSHAVFNIIFTQKRHDAETNITTEKVSKISLVDLAGSERADSTGAKGTRLKEGANINKSLTTLGKVISALAEMDSGPNKNKKKKKTDFIPYRDSVLTWLLRENLGGNSRTAMVAALSPADINYDETLSTLRYADRAKQIRCNAIINEDPNNKLIRELKDEVTRLRDLLYAQGLGDITDTNTVPGGPKLTNALVGMSPSSSLSALSSRAASVSSLHERILFAPGSEEAIERLKETEKIIAELNETWEEKLRRTEAIRMEREALLAEMGVAMREDGGTLGVFSPKKTPHLVNLNEDPLMSECLLYYIKDGVTRVGREDAERRQDIVLSGHFIKEEHCIFRSDSRGGGEAVVTLEPCEGADTYVNGKKVTEPSILRSGNRIIMGKSHVFRFNHPEQARQERERTPCAETPAEPVDWAFAQRELLEKQGIDMKQEMEQRLQELEDQYRREREEATYLLEQQRLDYESKLEALQKQMDSRYYPEVNEEEEEPEDEVQWTERECELALWAFRKWKWYQFTSLRDLLWGNAIFLKEANAISVELKKKVQFQFVLLTDTLYSPLPPDLLPPEAAKDRETRPFPRTIVAVEVQDQKNGATHYWTLEKLRQRLDLMREMYDRAAEVPSSVVEDCDNVVTGGDPFYDRFPWFRLVGRAFVYLSNLLYPVPLVHRVAIVSEKGEVKGFLRVAVQAISADEEAPDYGSGVRQSGTAKISFDDQHFEKFQSESCPVVGMSRSGTSQEELRIVEGQGQGADAGPSADEVNNNTCSAVPPEGLLDSPEKAALDGPLDTALDHLRLGSTFTFRVTVLQASSISAEYADIFCQFNFIHRHDEAFSTEPLKNTGRGPPLGFYHVQNIAVEVTKSFIEYIKSQPIVFEVFGHYQQHPFPPLCKDVLSPLRPSRRHFPRVMPLSKPVPATKLSTMTRPSPGPCHCKYDLLVYFEICELEANGDYIPAVVDHRGGMPCMGTFLLHQGIQRRITVTLLHETGSHIRWKEVRELVVGRIRNTPETDEALIDPNILSLNILSSGYVHPAQDDRQFLDSDIPRTFYQFEAAWDSSMHNSLLLNRVTPYREKIYMTLSAYIEMENCTQPAVITKDFCMVFYSRDAKLPASRSIRNLFGSGSLRATEGNRVTGVYELSLCHVADAGSPGMQRRRRRVLDTSVAYVRGEENLAGWRPRSDSLILDHQWELEKLSLLQEVEKTRHYLLLREKLETTQRPVPEVLSPASSEDSESRSSSGASSPLSAEGQPSPLEVPNERQRELAVKCLRLLMHTFNREYTHSHVCISASESKLSEMSVTLMRDPSMSPLGAATLTPSSTCPSLIEGRYGATDVRTPQPCSRPASPEPELLPELDSKKTPSPVRATETEKEPQRLLVPDIQEIRVSPIVSKKGYLHFLEPHTAGWAKRFVVVRRPYAYMYNSDKDTVERFVLNLSTAQVEYSEDQQAMLKTPNTFAVCTEHRGILLQANSDKDMHDWLYAFNPLLAGTIRSKLSRRRSAQMRV | ~2 | 
mCit-KIF1A (natural protein, rat, UniProt F1M4A4 1-1707, looked up, KIF1A (Kinesin-3 motor), rat, full length; also called mCit-tagged KIF1A; FL KIF1A; source: COS cells, transfected; in lysate and in live cells; not shown: mCit (monomeric citrine), N-terminal, kept) MAGASVKVAVRVRPFNSREMSRDSKCIIQMSGSTTTIVNPKQPKETPKSFSFDYSYWSHTSPEDINYASQKQVYRDIGEEMLQHAFEGYNVCIFAYGQTGAGKSYTMMGKQEKDQQGIIPQLCEDLFSRINDTTNDNMSYSVEVSYMEIYCERVRDLLNPKNKGNLRVREHPLLGPYVEDLSKLAVTSYNDIQDLMDSGNKARTVAATNMNETSSRSHAVFNIIFTQKRHDAETNITTEKVSKISLVDLAGSERADSTGAKGTRLKEGANINKSLTTLGKVISALAEMDSGPNKNKKKKKTDFIPYRDSVLTWLLRENLGGNSRTAMVAALSPADINYDETLSTLRYADRAKQIRCNAIINEDPNNKLIRELKDEVTRLRDLLYAQGLGDITDTNTVPGGPKLTNALVGMSPSSSLSALSSRAASVSSLHERILFAPGSEEAIERLKETEKIIAELNETWEEKLRRTEAIRMEREALLAEMGVAMREDGGTLGVFSPKKTPHLVNLNEDPLMSECLLYYIKDGVTRVGREDAERRQDIVLSGHFIKEEHCIFRSDSRGGGEAVVTLEPCEGADTYVNGKKVTEPSILRSGNRIIMGKSHVFRFNHPEQARQERERTPCAETPAEPVDWAFAQRELLEKQGIDMKQEMEQRLQELEDQYRREREEATYLLEQQRLDYESKLEALQKQMDSRYYPEVNEEEEEPEDEVQWTERECELALWAFRKWKWYQFTSLRDLLWGNAIFLKEANAISVELKKKVQFQFVLLTDTLYSPLPPDLLPPEAAKDRETRPFPRTIVAVEVQDQKNGATHYWTLEKLRQRLDLMREMYDRAAEVPSSVVEDCDNVVTGGDPFYDRFPWFRLVGRAFVYLSNLLYPVPLVHRVAIVSEKGEVKGFLRVAVQAISADEEAPDYGSGVRQSGTAKISFDDQHFEKFQSESCPVVGMSRSGTSQEELRIVEGQGQGADAGPSADEVNNNTCSAVPPEGLLDSPEKAALDGPLDTALDHLRLGSTFTFRVTVLQASSISAEYADIFCQFNFIHRHDEAFSTEPLKNTGRGPPLGFYHVQNIAVEVTKSFIEYIKSQPIVFEVFGHYQQHPFPPLCKDVLSPLRPSRRHFPRVMPLSKPVPATKLSTMTRPSPGPCHCKYDLLVYFEICELEANGDYIPAVVDHRGGMPCMGTFLLHQGIQRRITVTLLHETGSHIRWKEVRELVVGRIRNTPETDEALIDPNILSLNILSSGYVHPAQDDRQFLDSDIPRTFYQFEAAWDSSMHNSLLLNRVTPYREKIYMTLSAYIEMENCTQPAVITKDFCMVFYSRDAKLPASRSIRNLFGSGSLRATEGNRVTGVYELSLCHVADAGSPGMQRRRRRVLDTSVAYVRGEENLAGWRPRSDSLILDHQWELEKLSLLQEVEKTRHYLLLREKLETTQRPVPEVLSPASSEDSESRSSSGASSPLSAEGQPSPLEVPNERQRELAVKCLRLLMHTFNREYTHSHVCISASESKLSEMSVTLMRDPSMSPLGAATLTPSSTCPSLIEGRYGATDVRTPQPCSRPASPEPELLPELDSKKTPSPVRATETEKEPQRLLVPDIQEIRVSPIVSKKGYLHFLEPHTAGWAKRFVVVRRPYAYMYNSDKDTVERFVLNLSTAQVEYSEDQQAMLKTPNTFAVCTEHRGILLQANSDKDMHDWLYAFNPLLAGTIRSKLSRRRSAQMRV | ~2 | 
KIF1A(1–393)-mCit (domain or fragment, rat, UniProt F1M4A4 1-393, looked up, full NC and several residues of the hinge; Plasmid was a gift from Gary Banker; source: COS cells, transfected, in lysate; not shown: mCit (monomeric citrine), C-terminal, kept) MAGASVKVAVRVRPFNSREMSRDSKCIIQMSGSTTTIVNPKQPKETPKSFSFDYSYWSHTSPEDINYASQKQVYRDIGEEMLQHAFEGYNVCIFAYGQTGAGKSYTMMGKQEKDQQGIIPQLCEDLFSRINDTTNDNMSYSVEVSYMEIYCERVRDLLNPKNKGNLRVREHPLLGPYVEDLSKLAVTSYNDIQDLMDSGNKARTVAATNMNETSSRSHAVFNIIFTQKRHDAETNITTEKVSKISLVDLAGSERADSTGAKGTRLKEGANINKSLTTLGKVISALAEMDSGPNKNKKKKKTDFIPYRDSVLTWLLRENLGGNSRTAMVAALSPADINYDETLSTLRYADRAKQIRCNAIINEDPNNKLIRELKDEVTRLRDLLYAQGLGDITD | 2 | 
